Patent US20200277377A1 (WUXI BIOLOGICS SHANGHAI, published 2020)
Residue numbers refer to the chain shown, from its start.

What was measured:
[1] = target: T1, full length human CTLA-4 on cells (human, UniProt P16410 36-223); assay: FACS on human CTLA4 expression 293F cell line
T1 construct: whole, on cells; also called CTLA-4-expressing cell line
T1 sequence (looked up): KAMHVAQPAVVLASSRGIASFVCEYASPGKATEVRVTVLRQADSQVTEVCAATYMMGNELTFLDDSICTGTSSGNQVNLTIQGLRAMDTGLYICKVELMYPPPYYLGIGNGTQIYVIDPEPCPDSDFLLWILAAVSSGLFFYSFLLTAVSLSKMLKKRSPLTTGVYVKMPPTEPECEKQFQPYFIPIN
Procedure: A number of 1×10⁵ cells per well was added to each well of a 96-well plate and centrifuged at 1500 rpm for 4 minutes at 4° C. before removing the supernatant. Serial dilutions of test antibodies, positive and negative controls were added to the resuspended cells and incubated for 1 hour at 4° C. The cells were washed two times with 200 μL DPBS containing 1% BSA. PE conjugated goat anti-human IgG (1:100) diluted in DPBS containing 1% BSA was added to the cells and incubated at 4° C. for 1 hour. Additional washing steps were performed two times with 200 μL DPBS containing 1% BSA followed by centrifugation at 1500 rpm for 4 minutes at 4° C. Finally, the cells were resuspended in 100 μL DPBS containing 1% BSA and fluorescence values were measured by flow cytometry and analyzed by FlowJo.

PD-1 = PD-1 (Homo sapiens (Human), UniProt Q15116 25-170); assay: specificity ELISA on coated antigens, OD
PD-1, sequence (Q15116 25-170 limits assumed): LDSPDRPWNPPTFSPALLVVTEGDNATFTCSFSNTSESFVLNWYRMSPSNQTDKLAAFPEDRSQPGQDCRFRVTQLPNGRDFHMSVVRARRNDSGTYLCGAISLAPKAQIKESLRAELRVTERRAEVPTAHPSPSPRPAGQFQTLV
Procedure: (§1) In the ELISA assay, the testing antibodies, isotype control antibodies were tested binding to 10 different target antigens including Factor VIII, FGFR-ECD, PD-1, CTLA-4.ECD, VEGF, HER3.ECD, OX40.ECD, 4-1BB.ECD, CD22.ECD, CD3e.ECD. A 96-well plate was coated with the individual antigens (2 μg/mL) at 4° C. overnight. After 1 hour blocking with 2% BSA in PBS, wash plate 3 times with 300 μL PBST. Testing antibodies, as well as isotype control antibodies were diluted to 10 μg/mL in PBS containing 2% BSA, then were added to the plate and incubated at room temperature for 2 hours. After 3 times washing with 300 μL PBST, HRP-conjugated goat anti-human IgG antibody (1:5000 diluted in 2% BSA) was added to the plate and incubated at room temperature for 1 hours. Finally, the plates were washed six times with 300 μL PBST. The color was developed by dispensing 100 μL of TMB substrate for 12 min, and then stopped by 100 μL of 2M HCl.

HER3.ECD = HER3.ECD (Homo sapiens (Human), UniProt P21860 20-643); assay: specificity ELISA on coated antigens, OD
HER3.ECD, sequence (P21860 20-643 limits assumed): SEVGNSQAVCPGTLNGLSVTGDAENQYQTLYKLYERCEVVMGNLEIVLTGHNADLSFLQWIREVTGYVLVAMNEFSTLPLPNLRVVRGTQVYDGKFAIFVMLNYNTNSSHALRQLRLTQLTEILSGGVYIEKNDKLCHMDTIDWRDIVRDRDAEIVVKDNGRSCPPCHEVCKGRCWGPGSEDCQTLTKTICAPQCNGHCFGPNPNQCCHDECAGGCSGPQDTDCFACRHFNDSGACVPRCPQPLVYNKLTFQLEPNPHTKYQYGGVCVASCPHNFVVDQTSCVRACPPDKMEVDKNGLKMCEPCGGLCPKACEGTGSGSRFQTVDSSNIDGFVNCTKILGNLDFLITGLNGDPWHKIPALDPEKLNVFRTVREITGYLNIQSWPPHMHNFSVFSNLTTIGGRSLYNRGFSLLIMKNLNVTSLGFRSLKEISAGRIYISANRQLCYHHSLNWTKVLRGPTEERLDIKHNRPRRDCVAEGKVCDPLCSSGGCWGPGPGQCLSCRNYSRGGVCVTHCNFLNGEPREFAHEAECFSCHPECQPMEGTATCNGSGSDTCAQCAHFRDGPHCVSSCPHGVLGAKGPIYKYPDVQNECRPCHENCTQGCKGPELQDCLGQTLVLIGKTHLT
Procedure: as §1

4-1BB.ECD = 4-1BB.ECD (Homo sapiens (Human), UniProt Q07011 24-186); assay: specificity ELISA on coated antigens, OD
Procedure: as §1

CD3e.ECD = CD3e.ECD (Homo sapiens (Human), UniProt P07766 23-126); assay: specificity ELISA on coated antigens, OD
CD3e.ECD, sequence (P07766 23-126 limits assumed): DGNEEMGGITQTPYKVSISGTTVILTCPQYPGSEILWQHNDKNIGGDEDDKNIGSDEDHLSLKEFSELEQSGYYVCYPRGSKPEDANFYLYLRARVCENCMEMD
Procedure: as §1

[2] = target: T2, hCTLA4_ECD.His point mutant V40 to alanine (human, UniProt P16410 36-161); assay: capture ELISA, alanine scan, vs silent alanine substitutions
T2 construct: extracellular domain; alanine-scan mutein, HEK293F supernatant
T2 sequence (looked up): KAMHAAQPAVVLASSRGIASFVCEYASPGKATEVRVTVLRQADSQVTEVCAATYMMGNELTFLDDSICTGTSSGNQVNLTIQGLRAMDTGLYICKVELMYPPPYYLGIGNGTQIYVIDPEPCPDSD
Procedure: (§2) In order to test how the mutations affect antibody-binding, a capture ELISA was conducted. […] After interacting with the supernatant that contains quantified CTLA4 muteins, HRP conjugated anti-His antibody (1:5000; Rockland Immunochemicals, Pottstown, Pa.) was added as detection antibody. TMB was used as substance of HRP. Absorbance was normalized according to the average of control mutants. After setting an additional cutoff to the binding fold change (<0.55), the final determined epitope residues were identified.

[3] = target: T3, hCTLA4_ECD.His point mutant M134 to alanine (human, UniProt P16410 36-161); assay: as above
T3 construct: extracellular domain; alanine-scan mutein, HEK293F supernatant
T3 sequence (looked up): T2 sequence (looked up) with A5V, M99A
Procedure: as §2

[4] = target: T4, hCTLA4_ECD.His point mutant I149 to alanine (human, UniProt P16410 36-161); assay: as above
T4 construct: extracellular domain; alanine-scan mutein, HEK293F supernatant
T4 sequence (looked up): T2 sequence (looked up) with A5V, I114A
Procedure: as §2

human CTLA-4.ECD.hFc [5] = target: T5, human CTLA-4.ECD.hFc (human, UniProt P16410 36-161); assay: competition ELISA, coated human CTLA-4.ECD.hFc, competitor CD80-6×His
T5 construct: extracellular domain; also called hCTLA-4.ECD.hFc; not shown: human Fc tag (hFc)
T5 sequence (looked up): T2 sequence (looked up) with A5V
Procedure: (§3) Plates were coated with human CTLA-4.ECD.hFc (0.5 μg/mL) at 4° C. for 16-20 hours. […] After washing three times with PBS containing 0.05% Tween 20, biotinylated anti-His tag antibody was 1:2000 diluted and added. The plates were incubated at room temperature for 1 hour. The bound ligands were detected by HRP conjugated streptavidin (1:20000). The color was developed by dispensing 100 μL of TMB substrate for 8 mins, and then stopped by 100 μL of 2N HCl.

human CTLA-4.ECD.hFc [6] = target: T5, human CTLA-4.ECD.hFc; assay: competition ELISA, coated human CTLA-4.ECD.hFc, competitor CD86-6×His
Procedure: as §3

B1: W3162_1.154.8-z35-uAb.IgG1K (antibody, V domains shown)
VH: QVQLVQSGAEVKKPGSSVKVSCKASGYTFTNYFMNWVRQAPGQGLEWMGRVDPEQGRADYAEKFKKRVTITADKSTSTAYMELSSLRSEDTAVYYCARRAMDNYGFAYWGQGTLVTVSS
VL: EIVLTQSPDFQSVTPKEKVTITCSANSALSYMYWYQQKPDQSPKLWVHGTSNLASGVPSRFSGSGSGTDFTLTINSLEAEDAATYYCHHWSNTQWTFGGGTKVEIK
notes: Humanized; label says IgG1K
[1]
  EC50: 0.66 nM
PD-1
  binding result: no binding (tested: 10 ug/mL)
HER3.ECD
  binding result: no binding (tested: 10 ug/mL)
4-1BB.ECD
  binding result: no binding (tested: 10 ug/mL)
CD3e.ECD
  binding result: no binding (tested: 10 ug/mL)
[2]
  Fold change: 0.187 fold
[3]
  Fold change: 0.455 fold
[4]
  Fold change: 0.319 fold
Human CTLA-4.ECD.hFc [5]
  IC50: 0.63 nM
Human CTLA-4.ECD.hFc [6]
  IC50: 0.5 nM

B2: W3162-1.146.19-z12-uAb.IgG1K (antibody, V domains shown)
VH: QVQLQESGPGLVKPSETLSLTCSVTYHTITSGYDWTWIRKPPGKGMEWIGYISYSGNTNYNPSLKSRVTISRDTSKNQFFLKLSSVTAADTAVYYCASMMVPHYYVMDAWGQGTLVTVSS
VL: DIVMTQTPLSLSVTPGQPASISCRSSQSLLNSDGNTYLYWYLQKPGQSPQLLIYLVSKLGSGVPNRFSGSGSGTDFTLKISRVEAEDVGVYYCVQGTHDPWTFGGGTKVEIK
notes: Humanized; label says IgG1K
[1]
  EC50: 1.58 nM
PD-1
  binding result: no binding (tested: 10 ug/mL)
HER3.ECD
  binding result: no binding (tested: 10 ug/mL)
4-1BB.ECD
  binding result: no binding (tested: 10 ug/mL)
CD3e.ECD
  binding result: no binding (tested: 10 ug/mL)
[2]
  Fold change: 0.181 fold
[3]
  Fold change: 0.254 fold
[4]
  Fold change: 0.183 fold
Human CTLA-4.ECD.hFc [5]
  IC50: 0.87 nM
Human CTLA-4.ECD.hFc [6]
  IC50: 0.71 nM
